From patent publication US20250376511A1 (Sanofi, published 2025)
Where a chain is given by its changes, count along the chain named. Where two headings read alike, the source gives them in different places. One block for each binder: values may come before it.

Columns and labels:
[1] = target: T1, Human active C1s (Complement Technology) (human, UniProt P09871 16-688); test: cell-based or functional assay
T1 sequence: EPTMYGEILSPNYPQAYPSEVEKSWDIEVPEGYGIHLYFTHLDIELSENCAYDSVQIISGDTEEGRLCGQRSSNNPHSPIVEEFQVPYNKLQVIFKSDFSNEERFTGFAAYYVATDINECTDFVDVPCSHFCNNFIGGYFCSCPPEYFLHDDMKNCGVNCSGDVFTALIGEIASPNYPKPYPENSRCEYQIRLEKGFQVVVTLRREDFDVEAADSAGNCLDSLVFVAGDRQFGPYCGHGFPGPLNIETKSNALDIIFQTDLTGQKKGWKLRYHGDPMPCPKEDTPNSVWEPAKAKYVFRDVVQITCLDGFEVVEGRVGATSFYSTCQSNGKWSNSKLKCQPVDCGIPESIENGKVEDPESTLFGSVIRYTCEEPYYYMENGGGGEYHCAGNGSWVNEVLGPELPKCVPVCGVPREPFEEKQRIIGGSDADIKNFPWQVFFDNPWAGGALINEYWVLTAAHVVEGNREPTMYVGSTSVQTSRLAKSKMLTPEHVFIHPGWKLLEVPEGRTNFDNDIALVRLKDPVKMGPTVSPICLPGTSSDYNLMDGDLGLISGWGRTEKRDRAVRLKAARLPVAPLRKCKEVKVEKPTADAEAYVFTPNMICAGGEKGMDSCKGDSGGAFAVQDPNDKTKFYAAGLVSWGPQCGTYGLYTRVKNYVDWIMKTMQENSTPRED

[2] = target: T1, Human active C1s (Complement Technology); test: cell-based or functional assay; remark: listed apart in the source
[3] = target: T1, Human active C1s (Complement Technology); test: cell-based or functional assay; remark: listed apart in the source
[4] = target: T1, Human active C1s (Complement Technology); test: SPRi Carterra LSA, antibody captured on protein A/G, human active C1s as analyte, 25 C, 1:1 fit
Method: C1s binding using surface plasmon resonance (SPRi): Analysis of active C1s binding was performed on a Carterra LSA SPRi instrument at 25° C. Protein A/G (Sigma) diluted in 25 mM MES pH 6.0, 0.05% Tween-20 running buffer was covalently immobilized to an HC200M sensor chip using amine coupling. Antibodies were diluted to 0.2 μg/mL in HBS-EP+ buffer and printed in duplicate to the protein A/G surface in the capture 96-array format for 5 min followed by a 1 min baseline in buffer. Human active C1s (Complement Technology) was serially diluted […] from 1 μM to 0.781 nM in running buffer and injected over the captured antibodies for 5 min with a 5 min dissociation time. The surface was regenerated with 10 mM glycine pH 1.5 with two 30 sec injections. Sensorgrams were processed with the Carterra® K.I.T. Inspection Tool and fit to a 1:1 binding model to obtain kinetic constants.
Three variants were selected as viable engineered alternatives to the wild-type anti-aC1s sequence: D32E, D32S, and D32Y. The three variants were expressed as bivalent monospecific anti-aC1s antibodies with human IgG1 and their affinity for aC1s tested by surface plasmon resonance (Table 5).

[5] = target: T1, Human active C1s (Complement Technology); test: cell-based or functional assay; remark: listed apart in the source
[6] = target: T1, Human active C1s (Complement Technology); test: SPR Biacore T200, antibody captured on anti-human Fc, human active C1s as analyte, 1:1 fit
Method: (§1) TfR and C1s binding using surface plasmon resonance (SPR): Analysis of antibody binding to TfR was performed on a Biacore™ T200 instrument using anti-His capture at 25° C. Anti-His (Qiagen) was buffer exchanged into PBS pH 7.2, diluted to 25 μg/mL in 10 mM sodium acetate pH 4.0 and directly immobilized to a series S CM5 chip to a surface density of ˜10,000 RU using the amine coupling kit provided by Cytiva. His-tagged recombinant human TfR (produced in-house) was diluted in HBS-EP+ pH 7.4 running buffer (10 mM HEPES pH 7.4, 150 mM NaCl, 3 mM EDTA, 0.05% surfactant P20) and injected for 5 sec at 20 μL/min flowrate to obtain capture level of 20 RU. Antibodies were serially diluted 2-fold from 90 to 5.625 nM in running buffer and injected over the captured TfR for 3 min followed by 9 min dissociation in buffer at 30 μL/min. Each cycle was regenerated with 10 mM glycine pH 1.5. To measure C1s binding, anti-human Fc (Jackson) was directly immobilized to a CM5 chip using amine chemistry. Antibodies were diluted to 2.5 μg/mL in HBS-EP+ pH 7.4 and captured to the chip for 15 sec at 20 μL/min flowrate. Human active C1s (Complement Technology) was serially diluted 2-fold from 20 to 0.625 nM in running buffer and injected over the captured antibodies for 180 sec at 50 μL/min followed by 9 min dissociation in buffer. The bound complex was removed from the chip each cycle with 40 mM HCl and 0.85% phosphoric acid. Sensorgrams were processed using the Biacore™ Insight software and fit to a 1:1 binding model to obtain kinetic constants.
(§2) The six bispecific anti-aC1s/anti-TfR antibodies were first tested for their affinity for both TfR and aC1s via surface plasmon resonance (SPR) (Table 2).

[7] = target: T2, His-tagged recombinant human TfR (produced in-house) (human, UniProt P02786 89-760); test: SPR Biacore T200, His-tagged human TfR captured on anti-His, antibody as analyte, 25 C, 1:1 fit
T2 construct: also called hTfR; transferrin receptor 1
Method: as §1, §2

T2 sequence (P02786 89-760 limits assumed): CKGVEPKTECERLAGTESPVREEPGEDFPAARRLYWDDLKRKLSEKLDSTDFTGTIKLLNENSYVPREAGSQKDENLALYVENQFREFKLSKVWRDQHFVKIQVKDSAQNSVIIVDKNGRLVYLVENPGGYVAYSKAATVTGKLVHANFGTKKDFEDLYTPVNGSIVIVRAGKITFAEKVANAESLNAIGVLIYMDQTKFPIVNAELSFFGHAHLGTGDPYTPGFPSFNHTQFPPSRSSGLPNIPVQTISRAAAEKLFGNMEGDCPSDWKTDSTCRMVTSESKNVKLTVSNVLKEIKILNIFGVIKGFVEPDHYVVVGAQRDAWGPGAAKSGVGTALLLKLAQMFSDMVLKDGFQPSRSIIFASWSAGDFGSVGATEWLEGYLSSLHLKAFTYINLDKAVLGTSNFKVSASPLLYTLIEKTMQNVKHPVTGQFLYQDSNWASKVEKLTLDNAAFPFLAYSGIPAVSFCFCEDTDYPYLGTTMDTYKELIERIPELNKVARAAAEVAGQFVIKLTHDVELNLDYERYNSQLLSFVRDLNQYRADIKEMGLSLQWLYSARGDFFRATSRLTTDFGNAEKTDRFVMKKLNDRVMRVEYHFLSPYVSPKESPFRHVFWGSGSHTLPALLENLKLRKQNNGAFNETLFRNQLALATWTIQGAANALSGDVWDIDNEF

B1: SAR445088 (antibody, V domains shown)
VH: QVQLVQSGAEVKKPGASVKLSCTASGFNIKDDYIHWVKQAPGQGLEWIGRIDPADGHTKYAPKFQVKVTITADTSTSTAYLELSSLRSEDTAVYYCARYGYGREVFDYWGQGTTVTVSS
VL: DIVLTQSPDSLAVSLGERATISCKASQSVDYDGDSYMNWYQQKPGQPPKILIYDASNLESGIPARFSGSGSGTDFTLTISSLEPEDFAIYYCQQSNEDPWTFGGGTKVEIK
modifications: sulfated tyrosine (Y36) on the light chain
notes: Bivalent monospecific anti-aC1s antibody; also called BIVV020; the wild-type antibody
IC50, Wieslab Complement Pathway Assay (classical pathway, 1% NHS) [1]: 0.77 µg/mL
IC50, Wieslab Complement Pathway Assay (classical pathway, 1% NHS) [2]: 1.07 µg/mL
IC50, Wieslab Complement Pathway Assay (batch 1) [3]: 0.45 µg/mL
IC50, Wieslab Complement Pathway Assay (batch 2) [3]: 0.63 µg/mL
Kd [4]: 2.5 nM
koff [4]: 0.0033 s⁻¹
kon [4]: 1.3e+06 M⁻¹ s⁻¹

B2: aC1s_088 × 531v25 IgG1-NNAS/dK (bispecific antibody, V domains shown)
VH 1: B1 VH with Q39E
VL 1: B1 VL with Q42K
VH 2: QVQLVQSGAEVKKPGASVKVSCKASGYTFTRYYLNWVRKAPGQGLEWIGMIDPSVSETHYAQKFQGRATLTVDKSTSTAYMELSSLRSEDTAVYYCSQIRLPYYYAMDSWGQGTTVTVSS
VL 2: DIQMTQSPSSLSASVGDRVTITCRASQDISSFLNWYQEKPGKAPKLLIYYTSRLQSGVPSRFSGSGSGTDYTLTISSLQPEDFATYYCQQGNTLPRTFGGGTKVEIK
notes: IgG1-NNAS Fc, dK, with charge pairing mutations; The starred variable domains are used, as for m5
IC50, Wieslab Complement Pathway Assay (classical pathway, 1% NHS) [1]: 2.02 µg/mL
IC50, C3d deposition on neurons in iPSC tricultures with serum [5]: 29.7 µg/mL
Kd [6]: 0.68 nM
koff [6]: 0.00285 s⁻¹
kon [6]: 4.22e+06 M⁻¹ s⁻¹
Kd [7]: 24.6 nM
koff [7]: 0.0049 s⁻¹
kon [7]: 199000 M⁻¹ s⁻¹

B4: aC1s_088 IgG1-dK (antibody, V domains shown)
VH: B1 VH
VL: B1 VL
IC50, Wieslab Complement Pathway Assay (classical pathway, 1% NHS) [2]: 0.84 µg/mL

Results, then the binder that gave them:

IC50, Wieslab Complement Pathway Assay (classical pathway, 1% NHS) [2]: 1.36 µg/mL
Kd [4]: 2.5 nM
koff [4]: 0.0032 s⁻¹
kon [4]: 1.3e+06 M⁻¹ s⁻¹
B3: aC1s_D32E IgG1-dK (antibody, V domains shown)
VH: B1 VH
VL: B1 VL with D32E
modifications: Y36 sulfation: Yes

IC50, Wieslab Complement Pathway Assay (classical pathway, 1% NHS) [2]: 10.7 µg/mL
Kd [4]: 7.3 nM
koff [4]: 0.0065 s⁻¹
kon [4]: 890000 M⁻¹ s⁻¹
B5: aC1s_D32S IgG1-dK (antibody, V domains shown)
VH: B1 VH
VL: B1 VL with D32S
notes: Bivalent monospecific human IgG1

IC50, Wieslab Complement Pathway Assay (classical pathway, 1% NHS) [1]: 1.78 µg/mL
IC50, C3d deposition on neurons in iPSC tricultures with serum [5]: 12.8 µg/mL
Kd [6]: 0.69 nM
koff [6]: 0.00272 s⁻¹
kon [6]: 3.96e+06 M⁻¹ s⁻¹
Kd [7]: 20.3 nM
koff [7]: 0.00332 s⁻¹
kon [7]: 164000 M⁻¹ s⁻¹
B6: aC1s_088 × 531v25.v6 IgG1-NNAS/dK (bispecific antibody, V domains shown)
VH 1: B1 VH with Q39E
VL 1: B1 VL with Q42K
VH 2: B2 VH 2
VL 2: B2 VL 2 with S30E
notes: as for B2
